Experimental data published in the nanobody polyreactivity screen of Harvey et al. (2022).

Assay: yeast display, Sf9 membrane polyspecificity reagent, FACS + sequencing; frameworks hold sequencing errors
Outline: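 In a synthetic yeast display library (Saccharomyces cerevisiae BJ5465), nanobody expression was induced with galactose for 36–48 hours. FACS gates were set low and high (top ~1%) using anti-HA fluorescence for expression and streptavidin fluorescence for binding of the Sf9 membrane reagent. Each polyreactivity label is drawn from the gate of origin.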

| Sequence | polyreactivity (PSR sort gate) |
| --- | --- |
| QVQLEESGGRLVQAGGSLRLSCAASGGILRGYGMGWYRQAQGKQRELVAVISRRGGSTYYADSVKGRFTISRDNAKNTVYLQMNRLKPEVTAVYYCAADLKTGFLEYDYWGQGTQVTVSS | high polyreactivity |
| QVQLVESGGGLVQAGGSLRLSCPACGRTFNRYAMGWYRQAPGKERELVATISNSGRTYYADSVKGRFTISRDNAKNTVYLQMNSLKPEDTAVYYCAAQLPSYYKYPRHDYWGKGTQVTVSS | high polyreactivity |
| QVQLVESGGGLVQAGGSLRLSCAASGRIFGAYAMGWYRQAPGKERELVAAINRGGSTNYADSVKGRFTISRDNAKNTVYLQMNSLKPEDTAVYYCAKRSSGRHFTYDYWGQGTQVTVSS | low polyreactivity |
| QVQLVESGGGLVQAGGSLRLSCAASGSTFVINAMGWYRQAPGKEREFVAAISYSRGITYYADSVKGRFTISRDNAKNYVDLQMNSLKQEDTAVYYCAVSPFENRDSGYDYWGQCTQVTVSS | low polyreactivity |
| QVQLVESGGGLVQAGGSLRLSCAASGIIFWYYAMGWYRQAPGKERELVAAISSGGGTNYADSVKGRFTISRDNAKNTVSLQMNSLKPEDTAVYYCNADDNPVWEYDYWGQGTQVTVSS | low polyreactivity |
| QVQLVESGGGLVQAGGSLRLSCAASGRTFGRNAMGWYRQAPGKERELVAAISSSADRTYYADSVKGRFTISRDNAKNNVYVEMNSLKPEDTAVYYCAARTFWGAYDYWGQGTQVTVSS | high polyreactivity |
| QVQLVESCGGLVQAGGSLRLSCAASGFIIGYYAMGWYRQAPGKERELVAAISSTGGSTYYADSVKGRFTISRDNAKNNVYLQMNSLKPEDTAVYYCAKRFAYYRYHPGYDYWGQGTQVTVSS | high polyreactivity |
| QVQLVESGGGLVQEGGSLRLSCAASGFIVSYYTMGWYRQAPGKERELVAAIRSSGGSTYADSVKGRFTISRDNAKNTVYLQMNSLKPEDTAVYYCAAVQTWRWVYARDYWGQGTQVTVSS | high polyreactivity |
| QVQLVESGGGLVQAGGSLRLSCAASGRIFTYNTMGWYRQSPGKEREFVASITYSGSSTYYADSVKGRFTISRDNAKNTVYLQMNSLKPEDTAVYYCATRYGYSDGDYWGHGTQVTVSS | low polyreactivity |
| QVQLVESGGGLVQAGGSLRLSCAASGSTFKPNVMGWSRLAPGKERELVAAITSTDDPTYYADSVKGRFSISRDNAKNTVYLQMNSLKPEDTAVDYCAVESLRDDFEYDYWGQGTQVTVSS | low polyreactivity |
| QVQLVESGGVLVQAGGSLRLRCAASVRNYNSYMGWYRPAPGKERELVAAISWSSGTSTYYADSVKGRFTISRDNAKNTVYLQMNSLKPEDTEVYYCNAVDYFGPYPEEYDYWGQGTQVTVSS | low polyreactivity |
| QVQLVESGGGLVQAGGSLRLSCAASGVIFESNAMAWYRQAPGKERELVAANTKRGGSTYYADSVKGRFTISRDNAKNTVYLQMKSLKPEDTAVYYCNALGYWRRVVDGFDNWGQGTQVTVSS | high polyreactivity |
| QDQLVESGGGLVQAGGSLRLSCAASGRTFGTNARGWYRQAPGKERELVAGINYSDGSTYYADSVKGRFTISRDNAKNTVYLQMNSLKPEVTAVYYCAADPGWAWWELYYWGQGTQVTVSS | low polyreactivity |
| QVQLVESAGGLVQAGGSLRLSCAASGRIFVRYAKGRYREAPGKVRELVAAISSSGSSTYYADSVKRRFTISRDNASNTVYLQMNSLKPEDTAVYYCNAVPSVRWRYDYWGQGTQVTVSS | high polyreactivity |
| QVQLVESGGGLVQAGGSLRLSCAASGSTYVGYAMGWYRQAPRKERDLVADIDSIGGSTYYADTVKRRFTISRDKAKNTVYLQMNSLKPEDTAVYYCAARRFDTALVLYDYWGQCTQVTVSS | low polyreactivity |
| QVQLEESGGRLVQAGGSLRLSCAASGSIIGRYTMGWYRQAPGKERELVAAISGSGGSTYYADSVKGRFTISRDNAKNSVYFQMYSLKPEDTAVYYCAAYYYGRYLMVYWGQGTQVTVAS | high polyreactivity |
| QVQLVDSGGGLVQAGGSLRLSCAASGFIFRYYAMGWYRQAPGTERELVAAISRSGGSTYYADSVKGRFTISRDNAKNTVYLQMYSLKPEDTAVYYCNRGDVIGRQYDSAYGYWGQGTQVTVSS | high polyreactivity |
| QVQLVESGGGLVQAGGSLRLSCAASGFIFDVYAMGWYRQAPGKERELVAAITSGDGTNYADSVKGRFTISRDNAKNTVYLQMNSLKPEDTAVYYCAADYGVTYRGIIFSYWGQGTQVTVSS | low polyreactivity |
| QVQLVESGGGLVQAGGSIRLSCSASGRIFNRNAMGWYRKAPGKERELVAAISSDTSTNYADSVKGRFTISRDNAKNNVYLQMNSLKPEDTAVYYCNADGYYDMDYWGQGTQVTVSS | low polyreactivity |
| QVQLVESGGGLVQAGGSLRLSCAASGRIFPKYTMGWYRQAPGKERELVASINSSGRTTYADSVKGRFTITRDNAKNTVYLQMNSLKPEDTAVYYCAKRVFSARGYGYWGQGTQVTVSS | low polyreactivity |
| QVQLVESGVGLVQAGGSLSLSCAASGITFPYVMGWYRQAPGKERELVAAISRTGTSTYYADSVKGRFTSSRDNAKNNVYLEMNTLKPEDTAVYYCAARTQTQVYPAYGYWGQGTQVTVSS | high polyreactivity |
| QVQLVESGGGLVQAGGSLRLSCAASGSISYQNAMGWYRQAPGKERELVAAISGDGDSTYYADSVKGRFTISRDNAKNTVYLQMNSLKPEDTAVYYCAAEPNVYFSVFVLFPSDYWGQGTQVTVSS | low polyreactivity |

| Sequence | polyreactivity (PSR sort gate) |
| --- | --- |
| QVQLVESGGRLVQAGGSIRLSCAASGRIFGAYAMGWYRQAPGKERELVAAITQSGGSTFYADSVKGRFTISRDNAKNTVYLQMNSLKPEVTAVYYWGQGTQVTVSS | low polyreactivity |
| QDQLVESGGGLVQAGGSLRLSCAASGFTFYSYAMGWYRQAPGKERELVAAISYRGGSTYYADSVKGRFTISRDNAKNTVYFQMNSLKPEDTAVYYCAARSPSAAYGSYGVYYWGQGTQVTVSS | high polyreactivity |
| QVQLVESGGGIVQAGGSLRLSCAASGRNFSRYAMGWYRQAPGKERELVAVISRSGADTYYADSVKGRFTISRDNAKNTVYLQMNSLKPEDTAVYYCNAYSARRPHPMGYDYWGEGTQVTVSS | high polyreactivity |
| QVQLVESGGGLDQAGGSLRLSCAASGSTFGWYAMGWYIQAPGTERELVAAINSSGGTTYYADSVKGLFTISRDNAMNTVYLQMNSLKPEDTAVHYCAARQVYSVGKDTRSVGYWGQGTQVTGSS | low polyreactivity |
| QVQLVESGAGLVQAGGSLRLSCAASGLTFFYYAMGWYRQAPGKERELVAAIDNDGGTYYADSVKGRFTISRDNAKNTVYLLMNSLKPEDTAVYYCNADYQTVDDPYGYDYWGQGTQVTVSS | low polyreactivity |
| QVQLVESGGGLVQAGGSLRLSCAASGRIFAQNAMGWYRQAPGKERELVAAISWGGGGTYYADSVKGRFTISRDNAKNTVYLQMNSLKPEDTAVYYCAADSPGFGAWDRYEYWGQGTQVTVSW | low polyreactivity |
| QVQLVESGGGLVQAGGSLRLSCAASGRTFLGYAMGWYRQAPGKERELVAAISYSGSSTYYADSVKGRFTITRDNAKITVYLQMNSLKPEDTAVYYCAAQFFFLFDYWGQGTQVTLSS | low polyreactivity |
| QVQLVESGGGLVQAGGSLRLSCPASGLIFNSYAMGWYRQARGTERELVAAISRHGGITYYADSVKGRFTISRDHAKNTVYLQMNSLKPEDTAVYYCNADSSRRRYSSDYWGQGTQVTVSS | high polyreactivity |
| QVQIVESGGGLDQAGGSLRLSCAASGRTFVSNDMGRYRQAPGKERELVATISSGASTYYADSVKGRFTISRDNAKTTVYLQMISLKPEDNAVYYCAAEDLVFGGGYDYWGQGTQVNVSS | low polyreactivity |
| QVQLVESGGGLVQAGGSLRLSCAASGSTFSDYAMGWYRQEPGKERELVAAISSDGSTYYADSVKGRYTISRDNAKNTVYLQMNSLKPEDTAVYYCAKDVILVWPYATGRDFWGQGTQVTVSS | low polyreactivity |
| QVQLVESGGGLVQAGGSLSLSCAASGRTFKRYAMGWYRQAPGKERELVAAITSSGTSTYADSVKGRFTISRDNAKNTVYFQMNSLKPEDTAVYYCNRGYFNSRTPTFDYWGQGTQVTVSS | low polyreactivity |
| QVQLVESGGGLVQAGGSLRLSCAASGLTFQGYAMGWYRQAPGKERELVAAISGSGGSTYYADSVKGRFTISRDNAKNTVYLQMNSLKPEDTAVYYCAADDSYYGIDYGYWGQGTQVTVSS | low polyreactivity |
| QVQLVESGGGLVQAGGSLRLSCAASGSTFGRNAMGWYRQAPGKERELVAAITASGGTTYYADSVKGRFTISRDNAKNTVFLQMNSLKPEDTSVYYCARAGHFSFKYDYWGQGTQVTVSS | low polyreactivity |
| QVQLEDSGGGLVQAGGSLRLTCAASGRIFYPNVIGRNRQAPGKERELVAAIRTSGTGTYYADSVKGRFTISRDNAMNNVYLQMNSQKTQDTAGYYCAADYGYNRYWWWDWSYEYGYEYWGQGTQVTVSS | high polyreactivity |
| QVQLVESGGGLVQAGGSLRLSCAASGSTYYTNAMGWYRQAPGKERELVATITSSGGITSYADSVKGRFTISRDNAKNTVYLQMNSVKPEDTAVYYCAADFGSSYDTHEYGYWGQGTQVTVSS | low polyreactivity |
| QVQLVESGGGLVQAGGSLRLSCAASGFTFNAYAMGWYRQAPGKERELVAAINVSGGITYYADSVKGRFTISRDNAKNTVYLQMNSLKPEDTAVYYCARDSYYSQVYRRGYSVPWRLDYWGQGTQVTVSS | low polyreactivity |
| QVQLVESGGGLVQAGGSLRLSCAASGRIFRLYAMGWYRQAPGKERELVATITSGGTYYADSVKGRFTISRDNAKNTVYLQMNSLKPEDTAVYYFAAVVYPGYVGSQEYDYWGQGTQVTVSS | low polyreactivity |
| QVQLVESGGGLVQAGGSLRLSCAASGRIIRWYAMAWYRQAPGKERELVAAITWRGGSTDYADSVKGRFTISRDNAKNTVYLQMNSLKPEDTAVYYCNAAGFKTSWYYYGDWYDYWGQGTQVTVSS | high polyreactivity |
| QVQLVESGGGLVQAGGSLRLSCAASGFTFDKYAMGWYRQAPGKERELVAAISNSGGRTYYADSVKGRFTISRDNAKNTVYLQMNSLKPEDTAVYYCTIFKDYDYWGQGTQVTVSS | high polyreactivity |
| QVQLVESGGGLVQAGGSLRLSCAASGITFYGYVMGWYRQAPGKERELVAAISVRGGSTYYADSVKGRFTISRDNAKNTVYLQMNSLKPEDTAVYYSAAWSYAYYYRLRYVSHDYWRQGTQVTVSS | high polyreactivity |
| QVQLVESGGGLVQAGGSLRLSCAASGITFYHNAMGWYRPAPRKERELVATISRRGGRTYYADSVKGRFTISRDNAKNTVYLQMNSLKPEDTAVYYCAAAQKQSRYDYWGQGTQVTVSS | high polyreactivity |
